Results published in PMC5688128, “Structural basis for tRNA-dependent cysteine biosynthesis” (Nature Communications, 2017).

B3: O-phosphoseryl-tRNA synthetase (SepRS), Methanocaldococcus jannaschii (enzyme)
chain: MRFDIKKVLELAEKDFETAWRETRALIKDKHIDNKYPRLKPVYGKPHPVMETIERLRQAYLRMGFEEMINPVIVDEMEIYKQFGPEAMAVLDRCFYLAGLPRPDVGLGNEKVEIIKNLGIDIDEEKKERLREVLHLYKKGAIDGDDLVFEIAKALNVSNEMGLKVLETAFPEFKDLKPESTTLTLRSHMTSGWFITLSSLIKKRKLPLKLFSIDRCFRREQREDRSHLMSYHSASCVVVGEDVSVDDGKVVAEGLLAQFGFTKFKFKPDEKKSKYYTPETQTEVYAYHPKLGEWIEVATFGVYSPIALAKYNIDVPVMNLGLGVERLAMIIYGYEDVRAMVYPQFYEYRLSDRDIAGMIRVDKVPILDEFYNFANELIDICIANKDKESPCSVEVKREFNFNGERRVIKVEIFENEPNKKLLGPSVLNEVYVYDGNIYGIPPTFEGVKEQYIPILKKAKEEGVSTNIRYIDGIIYKLVAKIEEALVSNVDEFKFRVPIVRSLSDINLKIDELALKQIMGENKVIDVRGPVFLNAKVEIK
notes: O-phosphoseryl-tRNA synthetase (SepRS) of Methanocaldococcus jannaschii; wild type; source: E. coli B834(DE3) plus pRARE2, purified (heat treatment 75 °C, HisTrap, Heparin, Superdex 200)

Experiments:
[1] = target: T1, SepRS (SepRS-SepCysE-SepCysS ternary complex, transsulfursome) (Methanocaldococcus jannaschii, UniProt Q59054); assay: X-ray crystal structure, […] Å; assay type: binding; details: 10 mM ATP in crystallisation, pH 7.0; active site, Arg228, Glu230, His237, Tyr240; bent ATP
T1 construct: gene sepS; recombinant from E. coli B834(DE3), pET-15b; SepRS tetramer; only SepRS and SepCysE N-helix (Met1-Lys24) visible; with SepRS/SepCysS pathway enhancer SepCysE; O-phospho-L-seryl-tRNA:Cys-tRNA synthase

[2] = target: T2, SepCysS (SepCysE-SepCysS-tRNA^Cys complex) (Methanocaldococcus jannaschii, UniProt Q59072); assay: X-ray crystal structure, […] Å; assay type: binding; details: covalent; Lys234; crystallised at pH 5.0 with tRNA^Cys
T2 construct: gene pscS; recombinant, coexpressed with SepCysE in E. coli B834(DE3); SepCysS homodimer; co-crystal with tRNA^Cys; with SepRS/SepCysS pathway enhancer SepCysE
T2 sequence (Q59072 whole entry, one chain of several): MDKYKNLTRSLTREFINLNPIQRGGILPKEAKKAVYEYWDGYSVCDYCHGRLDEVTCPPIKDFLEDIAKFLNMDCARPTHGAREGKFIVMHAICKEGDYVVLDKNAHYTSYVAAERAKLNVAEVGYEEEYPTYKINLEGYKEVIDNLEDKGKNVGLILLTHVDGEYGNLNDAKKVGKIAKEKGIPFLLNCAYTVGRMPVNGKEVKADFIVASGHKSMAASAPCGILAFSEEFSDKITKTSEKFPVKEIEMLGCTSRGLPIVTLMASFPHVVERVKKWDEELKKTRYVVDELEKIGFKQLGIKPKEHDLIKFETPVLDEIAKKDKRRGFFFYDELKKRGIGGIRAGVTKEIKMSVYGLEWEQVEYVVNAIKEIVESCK

[3] = target: the molecule itself; assay: crystal structure; SepCysE-SepCysS mixed with tRNA^Cys at a molar ratio of 1:1.2, protein 16 mg/ml; 0.1 M MES pH 5.0, 2.4 M ammonium sulfate; 2.6 Å; PDB 5X6B
[4] = target: B3; assay: negative stain electron microscopy; purified wild type and del_linker1 transsulfursome adsorbed on carbon-coated grids; 20 mM HEPES-KOH pH 8.0, 200 mM KCl, 5 mM MgCl2; uranyl formate; class averaging; details: both partners purified
[5] = target: the molecule itself; assay: crystal structure; 50 μM SepRS-SepCysE-SepCysS(del_RRF), 30 μM tRNA^Cys, 10 mM ATP; 0.1 M Tris-HCl pH 7.0, 0.3 M ammonium sulfate, 36% MPD; 3.10 Å; only SepRS and the N-helix of SepCysE visible; PDB 5X6C
[6] = target: B3; assay: SEC-SAXS; SepCysE(CTD)-truncated transsulfursome in solution; Superdex 200 Increase 10/300 GL, room temperature; scattering compared with models from the crystal structures; details: both partners purified

## Nc1ncnc2c1ncn2[C@@H]1O[C@H](COP(=O)(O)OP(=O)(O)OP(=O)(O)O)[C@@H](O)[C@H]1O [ATP]
[1]
  X-ray crystal structure, 3.1 Å: ATP was observed in the active sites of SepRS.

## Cc1ncc(COP(=O)(O)O)c(C=O)c1O [pyridoxal-5′-phosphate]
[2]
  X-ray crystal structure, 2.6 Å: PLP was covalently bound to the side chain of the conserved Lys234

B1: Sep-tRNA:Cys-tRNA synthase (SepCysS), Methanocaldococcus jannaschii (enzyme)
chain: DKYKNLTRSLTREFINLNPIQRGGILPKEAKKAVYEYWDGYSVCDYCHGRLDEVTCPPIKDFLEDIAKFLNMDCARPTHGAREGKFIVMHAICKEGDYVVLDKNAHYTSYVAAERAKLNVAEVGYEEEYPTYKINLEGYKEVIDNLEDKGKNVGLILLTHVDGEYGNLNDAKKVGKIAKEKGIPFLLNCAYTVGRMPVNGKEVKADFIVASGHKSMAASAPCGILAFSEEFSDKITKTSEKFPVKEIEMLGCTSRGLPIVTLMASFPHVVERVKKWDEELKKTRYVVDELEKIGFKQLGIKPKEHDLIKFETPVLDEIAKKDKRRGFFFYDELKKRGIGGIRAGVTKEIKMSVYGLEWEQVEYVVNAIKEIVESCK
modifications: PLP covalently bound to the side chain of Lys234
notes: Sep-tRNA:Cys-tRNA synthase (SepCysS) of Methanocaldococcus jannaschii; wild type; large domain Gly43-Lys295, small domain Trp296-Lys396; Homodimer
[3]
  stoichiometry N: 2

B2: SepCysE (SepRS/SepCysS pathway enhancer), Methanocaldococcus jannaschii (natural protein)
chain: MRVEYSKDLIRKGISTISQLKKAKIRVEKDDKKISYKDAKPGKIDVNEFKKAIYLLIEADDFLYKKAPKHELNEEEAKEFCKLIIKCQEHLNKILANFGFEFEEKEIDEGALYIVSNKKLFKKLKNKNPNLKVVCTEGMLDIEDMRAIGVPEKALEGLKKKVEIARKNVERFIEKYKPEKIFVVVEDDKDELLYLRAKNLYNAEKLDADEILD
notes: SepCysE of Methanocaldococcus jannaschii; wild type
[3]
  stoichiometry N: 2
[4]
  binding result: binds

## B3
[5]
  stoichiometry N: 4

B4: SepCysE(del_linker1) of M. jannaschii, 10 residues of linker1 truncated (natural protein, Methanocaldococcus jannaschii)
chain: MRVEYSKDLIRKGISTISQLKKAKSYKDAKPGKIDVNEFKKAIYLLIEADDFLYKKAPKHELNEEEAKEFCKLIIKCQEHLNKILANFGFEFEEKEIDEGALYIVSNKKLFKKLKNKNPNLKVVCTEGMLDIEDMRAIGVPEKALEGLKKKVEIARKNVERFIEKYKPEKIFVVVEDDKDELLYLRAKNLYNAEKLDADEILD
notes: source: E. coli B834(DE3) plus pRARE2, purified within the transsulfursome (same procedure as the wild type)
[4]
  binding result: binds

B5: CTD-truncated SepCysE of M. jannaschii (domain or fragment, Methanocaldococcus jannaschii, UniProt Q58876 1-110, looked up)
chain: MRVEYSKDLIRKGISTISQLKKAKIRVEKDDKKISYKDAKPGKIDVNEFKKAIYLLIEADDFLYKKAPKHELNEEEAKEFCKLIIKCQEHLNKILANFGFEFEEKEIDEG
notes: also called SepCysE(CTD)-truncated; source: E. coli B834(DE3) plus pRARE2, purified within the transsulfursome (same procedure as the wild type)
[6]
  binding result: binds
